Measurements published in patent publication US20160046711A1 (Novartis, published 2016).

T1: cynomolgus CDH6 expressed on CHO cells (cynomolgus, UniProt A0A2K5TW62 54-790)
T1 sequence: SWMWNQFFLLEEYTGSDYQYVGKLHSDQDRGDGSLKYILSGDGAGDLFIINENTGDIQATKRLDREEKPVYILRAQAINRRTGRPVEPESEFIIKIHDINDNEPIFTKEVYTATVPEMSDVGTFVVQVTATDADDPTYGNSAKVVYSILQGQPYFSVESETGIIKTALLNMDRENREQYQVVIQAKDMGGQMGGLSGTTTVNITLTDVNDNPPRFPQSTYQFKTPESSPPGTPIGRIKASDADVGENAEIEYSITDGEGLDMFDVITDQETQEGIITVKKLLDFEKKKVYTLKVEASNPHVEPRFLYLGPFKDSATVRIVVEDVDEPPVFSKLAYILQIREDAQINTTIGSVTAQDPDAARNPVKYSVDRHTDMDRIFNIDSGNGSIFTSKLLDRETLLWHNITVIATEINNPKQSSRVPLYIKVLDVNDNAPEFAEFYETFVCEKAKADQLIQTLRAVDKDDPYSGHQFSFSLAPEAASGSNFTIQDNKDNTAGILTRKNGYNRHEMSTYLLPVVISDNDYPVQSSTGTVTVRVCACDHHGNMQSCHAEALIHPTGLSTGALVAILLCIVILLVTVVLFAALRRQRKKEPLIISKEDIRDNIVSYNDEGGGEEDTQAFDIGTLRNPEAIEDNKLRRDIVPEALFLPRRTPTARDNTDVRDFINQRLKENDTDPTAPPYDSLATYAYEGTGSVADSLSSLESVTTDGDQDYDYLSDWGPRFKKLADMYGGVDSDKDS

T2: mouse CDH6 expressed on CHO cells (mouse, UniProt P97326 54-790)
T2 sequence (looked up): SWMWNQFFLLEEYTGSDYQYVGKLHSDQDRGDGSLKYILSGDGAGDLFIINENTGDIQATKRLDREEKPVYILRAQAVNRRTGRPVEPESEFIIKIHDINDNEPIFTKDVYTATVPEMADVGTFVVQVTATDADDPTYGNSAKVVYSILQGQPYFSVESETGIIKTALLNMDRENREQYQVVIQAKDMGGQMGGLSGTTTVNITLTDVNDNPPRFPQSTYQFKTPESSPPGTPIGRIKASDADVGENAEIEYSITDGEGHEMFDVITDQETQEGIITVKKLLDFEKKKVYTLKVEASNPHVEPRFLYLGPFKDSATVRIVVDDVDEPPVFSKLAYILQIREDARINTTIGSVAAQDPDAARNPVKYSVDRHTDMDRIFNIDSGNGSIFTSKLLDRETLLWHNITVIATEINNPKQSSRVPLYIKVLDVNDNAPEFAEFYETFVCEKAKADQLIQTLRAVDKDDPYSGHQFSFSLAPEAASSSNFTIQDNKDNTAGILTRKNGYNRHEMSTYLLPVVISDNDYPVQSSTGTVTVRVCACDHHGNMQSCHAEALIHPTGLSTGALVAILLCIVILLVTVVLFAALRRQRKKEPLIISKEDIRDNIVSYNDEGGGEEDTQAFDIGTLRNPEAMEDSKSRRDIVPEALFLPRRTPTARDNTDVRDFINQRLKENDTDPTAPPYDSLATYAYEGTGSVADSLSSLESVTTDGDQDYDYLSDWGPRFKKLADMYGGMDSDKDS

T3: rat CDH6 expressed on CHO cells (rat, UniProt P55280 54-789)
T3 sequence (looked up): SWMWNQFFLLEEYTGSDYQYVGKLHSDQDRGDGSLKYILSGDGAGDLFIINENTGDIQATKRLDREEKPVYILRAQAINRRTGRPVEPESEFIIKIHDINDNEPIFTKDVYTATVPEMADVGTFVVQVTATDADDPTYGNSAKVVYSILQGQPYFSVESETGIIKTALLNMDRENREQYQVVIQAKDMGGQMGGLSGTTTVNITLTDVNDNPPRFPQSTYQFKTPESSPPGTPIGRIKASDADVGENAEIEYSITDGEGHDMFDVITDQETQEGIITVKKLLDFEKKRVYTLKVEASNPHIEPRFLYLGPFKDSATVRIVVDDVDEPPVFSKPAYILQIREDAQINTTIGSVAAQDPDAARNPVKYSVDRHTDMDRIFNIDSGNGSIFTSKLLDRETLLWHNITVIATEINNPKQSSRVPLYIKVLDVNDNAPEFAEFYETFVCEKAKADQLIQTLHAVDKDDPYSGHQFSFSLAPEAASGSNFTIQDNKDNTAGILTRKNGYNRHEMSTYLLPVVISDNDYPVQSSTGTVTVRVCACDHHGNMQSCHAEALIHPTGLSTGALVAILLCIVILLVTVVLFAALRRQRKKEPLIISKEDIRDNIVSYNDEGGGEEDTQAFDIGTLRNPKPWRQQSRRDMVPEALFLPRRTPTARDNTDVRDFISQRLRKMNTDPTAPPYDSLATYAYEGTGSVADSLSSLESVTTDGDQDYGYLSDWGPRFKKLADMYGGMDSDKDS

T4: human CDH6 expressed on cells (human, UniProt P55285 54-790)
T4 sequence: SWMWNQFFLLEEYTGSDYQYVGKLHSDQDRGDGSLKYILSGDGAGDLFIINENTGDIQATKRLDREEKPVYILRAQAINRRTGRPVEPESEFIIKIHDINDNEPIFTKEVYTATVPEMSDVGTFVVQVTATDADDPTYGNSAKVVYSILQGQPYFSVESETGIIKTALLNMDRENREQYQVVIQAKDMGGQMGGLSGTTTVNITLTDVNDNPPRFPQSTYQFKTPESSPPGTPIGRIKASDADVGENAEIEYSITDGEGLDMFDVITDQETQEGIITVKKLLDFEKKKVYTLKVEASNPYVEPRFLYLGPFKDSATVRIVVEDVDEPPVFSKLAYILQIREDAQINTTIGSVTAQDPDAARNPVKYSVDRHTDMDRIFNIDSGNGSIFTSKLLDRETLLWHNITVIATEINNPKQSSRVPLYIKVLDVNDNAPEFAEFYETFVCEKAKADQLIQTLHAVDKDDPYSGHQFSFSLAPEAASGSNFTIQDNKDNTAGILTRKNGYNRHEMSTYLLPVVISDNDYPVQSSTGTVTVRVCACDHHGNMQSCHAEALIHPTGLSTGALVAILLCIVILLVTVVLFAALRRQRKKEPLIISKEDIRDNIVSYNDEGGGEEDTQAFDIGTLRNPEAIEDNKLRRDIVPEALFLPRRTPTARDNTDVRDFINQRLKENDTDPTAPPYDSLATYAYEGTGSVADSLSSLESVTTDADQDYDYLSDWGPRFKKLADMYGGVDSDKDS


What was measured:
[1] = molecular target: T1, cynomolgus CDH6 expressed on CHO cells; test: FACS titration
[2] = molecular target: T2, mouse CDH6 expressed on CHO cells; test: FACS titration
[3] = molecular target: T3, rat CDH6 expressed on CHO cells; test: FACS titration
[4] = molecular target: T4, human CDH6 expressed on cells; test: FACS titration
[5] = molecular target: T4, human CDH6 expressed on cells; test: FACS titration; remark: listed apart in the source
[6] = molecular target: T1, cynomolgus CDH6 expressed on CHO cells; test: FACS titration on CHO-cyCDH6
[7] = molecular target: T2, mouse CDH6 expressed on CHO cells; test: FACS titration on CHO-moCDH6
[8] = molecular target: T3, rat CDH6 expressed on CHO cells; test: FACS titration on CHO-ratCDH6
[9] = molecular target: T4, human CDH6 expressed on cells; test: FACS titration on CHO-TO-huCDH6

| EC50 [1] [nM] | EC50 [2] [nM] | EC50 [3] [nM] | EC50 [4] [nM] | EC50 [5] [nM] | EC50 [6] [nM] | EC50 [7] [nM] | EC50 [8] [nM] | EC50 [9] [nM] | Binder |
| --- | --- | --- | --- | --- | --- | --- | --- | --- | --- |
| 1.07 | 1.26 | 0.814 | 0.946 | 0.386 | – | – | – | – | NOV0712 (antibody, human IgG1, kappa, V domains shown) VH: QVQLLESGGGLVQPGGSLRLSCAASGFTFSSHGMHWVRQAPGKGLEWVSVISGSGSNTGYADSVKGRFTISRDNSKNTLYLQMNSLRAEDTAVYYCARQWGSYAFDSWGQGTLVTVSS VL: DIQMTQSPSSLSASVGDRVTITCRASQSISSYLNWYQQKPGKAPKLLIYAVSTLQSGVPSRFSGSGSGTDFTLTISSLQPEDFATYYCQQSGTFPPTTFGQGTKVEIKR |
| – | – | – | – | 0.364 | 0.606 | 0.94 | 0.637 | 0.651 | NOV0712-sulfo-SPDB-DM4 (antibody, human IgG1, kappa, V domains shown, sulfo-SPDB-DM4 linker/payload on antibody amines, positions not given) VH: QVQLLESGGGLVQPGGSLRLSCAASGFTFSSHGMHWVRQAPGKGLEWVSVISGSGSNTGYADSVKGRFTISRDNSKNTLYLQMNSLRAEDTAVYYCARQWGSYAFDSWGQGTLVTVSS VL: DIQMTQSPSSLSASVGDRVTITCRASQSISSYLNWYQQKPGKAPKLLIYAVSTLQSGVPSRFSGSGSGTDFTLTISSLQPEDFATYYCQQSGTFPPTTFGQGTKVEIKR |
